Test results reported in US20050282743A1, “Molecular interactions in cells” (Arbor Vita Corporation, priority 2001, published 2005).
Structures can show the parent of a compound that is named as a salt. Ends that are not written are not given here. * marks the point of attachment. Biotin = O=C1N[C@H]2[C@H](CS[C@H]2CCCCC(=O)*)N1

Key:
Format in all cases: binding
[1] = target: T1, PDZ protein (GST-PDZ fusion) (Homo sapiens, UniProt Q5TCQ9); assay: G' assay (10 uM PL peptide), results of TABLE 7 and TABLE 12; details: PDZ KIAA1634, PDZ Domain 2
T1 construct: made in house; host or cells: E. coli (DH5alpha, BL21 or JM109)
T1 sequence (Q5TCQ9 1-1481): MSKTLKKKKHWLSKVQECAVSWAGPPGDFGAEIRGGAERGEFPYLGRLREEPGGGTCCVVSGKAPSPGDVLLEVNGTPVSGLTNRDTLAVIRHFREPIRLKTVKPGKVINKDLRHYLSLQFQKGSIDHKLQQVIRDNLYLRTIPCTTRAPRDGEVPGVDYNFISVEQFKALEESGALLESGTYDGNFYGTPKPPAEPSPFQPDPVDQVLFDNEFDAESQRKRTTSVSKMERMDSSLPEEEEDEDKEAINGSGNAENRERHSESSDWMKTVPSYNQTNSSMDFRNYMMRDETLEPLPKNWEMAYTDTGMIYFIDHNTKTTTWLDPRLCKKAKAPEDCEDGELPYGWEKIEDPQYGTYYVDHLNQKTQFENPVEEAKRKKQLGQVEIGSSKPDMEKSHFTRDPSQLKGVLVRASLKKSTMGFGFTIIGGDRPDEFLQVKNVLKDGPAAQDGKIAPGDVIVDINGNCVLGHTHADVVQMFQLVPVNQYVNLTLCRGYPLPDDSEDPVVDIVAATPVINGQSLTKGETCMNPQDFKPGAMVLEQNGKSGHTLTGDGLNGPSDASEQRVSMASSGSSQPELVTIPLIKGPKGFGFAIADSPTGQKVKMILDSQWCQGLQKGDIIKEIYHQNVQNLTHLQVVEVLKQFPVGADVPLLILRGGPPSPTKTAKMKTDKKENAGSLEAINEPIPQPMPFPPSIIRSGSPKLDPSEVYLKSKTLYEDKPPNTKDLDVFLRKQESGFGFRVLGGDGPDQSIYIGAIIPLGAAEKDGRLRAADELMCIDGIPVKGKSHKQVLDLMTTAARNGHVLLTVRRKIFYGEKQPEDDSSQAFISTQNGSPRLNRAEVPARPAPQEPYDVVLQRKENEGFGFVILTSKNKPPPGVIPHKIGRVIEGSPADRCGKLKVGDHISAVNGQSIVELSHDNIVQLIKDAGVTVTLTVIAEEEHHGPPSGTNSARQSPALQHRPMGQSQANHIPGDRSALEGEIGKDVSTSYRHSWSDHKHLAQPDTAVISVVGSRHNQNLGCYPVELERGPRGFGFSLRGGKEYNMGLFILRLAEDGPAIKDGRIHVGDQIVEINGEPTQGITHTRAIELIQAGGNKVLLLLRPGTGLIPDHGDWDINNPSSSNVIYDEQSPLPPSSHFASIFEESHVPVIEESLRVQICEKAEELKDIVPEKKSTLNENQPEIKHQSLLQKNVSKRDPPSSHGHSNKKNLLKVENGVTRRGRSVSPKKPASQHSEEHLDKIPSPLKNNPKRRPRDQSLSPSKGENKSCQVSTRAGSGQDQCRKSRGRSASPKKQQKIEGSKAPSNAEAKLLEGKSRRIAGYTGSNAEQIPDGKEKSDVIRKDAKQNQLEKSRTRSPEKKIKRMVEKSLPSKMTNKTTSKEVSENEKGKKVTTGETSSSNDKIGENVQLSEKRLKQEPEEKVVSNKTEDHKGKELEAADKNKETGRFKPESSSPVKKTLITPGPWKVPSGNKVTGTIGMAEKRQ
How it was run: (§1)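 Biotinylated PL peptides at 10 uM (vs 20 uM in G^0 assay) bound to GST-PDZ fusions; PDZ protein at 5 ug/ml unless another concentration listed. Bound peptide read as A450 nm, classified 0–5 (0 = A450 0; 5 = A450 >4 repeated).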

[2] = target: T2, PDZ protein (GST-PDZ fusion) (Homo sapiens, UniProt Q12923); assay: as above; details: PDZ PTPL-1, PDZ Domain 2
T2 construct: made in house; host or cells: E. coli (DH5alpha, BL21 or JM109)
How it was run: as §1

[3] = target: T3, PSD95 (PDZ Domain 1, 2, 3) (Homo sapiens, UniProt P78352); assay: G' assay, TABLE 12; details: A450 nm class of biotinylated PL peptide bound; 0 in conc columns = peptide 10 uM, protein 5 ug/ml
T3 construct: When more than one PDZ domain was cloned, the DNA portion cloned represents the PDZ domains and the cDNA portion located between individual domains; made in house; host or cells: E. coli (DH5alpha, BL21 or JM109)
Procedure: (§2) The third column labeled “Peptide Optimal Concentration” in the tables is a number reflective of the binding interaction between the PL protein and PDZ protein. […] The column labeled “Protein Optimal Concentration” refers to the protein concentration used to assay PL interaction (in ug/ml); a ‘0’ is indicative of 5 ug/ml protein concentration; any other value represents the concentration (in ug/ml) used to determine the dissociation constant for a given interaction.
(§3) Finally, the seventh column labeled “Classification” is another measure of the level of binding. In particular, it provides an absorbance value at 450 nm which indicates the amount of PL peptide bound to the PDZ protein. The following numerical values have the following meanings: ‘1’—A450 nm 0-1; ‘2’—A450 nm 1-2; ‘3’—A450 nm 2-3; ‘4’—A450 nm 3-4; ‘5’—A450 nm of 4 more than 2× repeated; ‘0’—A450 nm 0, i.e., not found to interact. Thus, higher numbers indicate stronger interactions.
(§4) For convenience, the assay conditions described in this section are referred to as the “G′ assay” and the “G″ assay,” with the specific conditions described in the preceding section on G assays being referred to as the “G^0 assay.” The “G′ assay” is identical to the “G^0 assay” except at step (2) the peptide concentration is 10 uM instead of 20 uM. […] Correspondingly, it slightly increases the certainty that detected interactions are of sufficient affinity and half-life to be of biological importance and useful therapeutic targets.

DLG1 (PDZ Domain 1, 2) = target: T4, DLG1 (PDZ Domain 1, 2) (Homo sapiens, UniProt Q12959); assay: G' assay, TABLE 12; details: A450 nm class of biotinylated PL peptide bound; 0 in conc columns = peptide 10 uM, protein 5 ug/ml
T4 construct: made in house; host or cells: E. coli (DH5alpha, BL21 or JM109)
Procedure: as §2, §3, §4

NeDLG (PDZ Domain 1, 2) = target: T5, NeDLG (PDZ Domain 1, 2) (Homo sapiens, UniProt Q92796); assay: G' assay, TABLE 12; details: A450 nm class of biotinylated PL peptide bound; 0 in conc columns = peptide 10 uM, protein 5 ug/ml
T5 construct: When more than one PDZ domain was cloned, the DNA portion cloned represents the PDZ domains and the cDNA portion located between individual domains; made in house; host or cells: E. coli (DH5alpha, BL21 or JM109)
T5 sequence (Q92796 129-315 limits assumed): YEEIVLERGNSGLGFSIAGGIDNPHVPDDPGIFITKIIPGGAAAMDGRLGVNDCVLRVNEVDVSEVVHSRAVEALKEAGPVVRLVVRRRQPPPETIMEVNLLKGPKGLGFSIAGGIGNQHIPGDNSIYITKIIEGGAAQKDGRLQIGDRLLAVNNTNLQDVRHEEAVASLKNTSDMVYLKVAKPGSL
Procedure: as §2, §3, §4

[4] = target: T6, PDZ protein (GST-PDZ fusion) (Homo sapiens, UniProt Q6P0Q8); assay: G' assay (10 uM PL peptide), results of TABLE 7 and TABLE 12; details: PDZ KIAA807
T6 construct: made in house; host or cells: E. coli (DH5alpha, BL21 or JM109)
How it was run: as §1

[5] = target: T7, PDZ protein (GST-PDZ fusion) (Homo sapiens, UniProt P78352); assay: as above; details: PDZ PSD95, PDZ Domain 1, 2, 3
T7 construct: made in house; host or cells: E. coli (DH5alpha, BL21 or JM109)
How it was run: as §1

[6] = target: T8, PDZ protein (GST-PDZ fusion) (Homo sapiens, UniProt O15021); assay: as above; details: PDZ KIAA0303, PDZ Domain 1
T8 construct: made in house; host or cells: E. coli (DH5alpha, BL21 or JM109)
How it was run: as §1

[7] = target: T9, PDZ protein (GST-PDZ fusion) (Homo sapiens, UniProt O14907); assay: as above; details: PDZ TIP1, PDZ Domain 1
T9 construct: made in house; host or cells: E. coli (DH5alpha, BL21 or JM109)
T9 sequence (O14907 1-124): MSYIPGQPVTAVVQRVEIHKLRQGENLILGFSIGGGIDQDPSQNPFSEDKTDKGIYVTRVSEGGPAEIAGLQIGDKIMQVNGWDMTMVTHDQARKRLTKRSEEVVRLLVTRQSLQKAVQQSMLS
How it was run: as §1

[8] = tested on: PDZ protein (GST-PDZ fusion); assay: as above
How it was run: as §1

[9] = tested on: hSyntenin : Presenilin (115L); assay: G assay with FDA approved drug (Example 7, TABLE 10A); details: OD in absence of drug 1.1; drug concentration per TABLE 11; read after 30 minutes
Procedure: (§5) For certain of the PDZ proteins and PL proteins shown to bind together and for which Kd values had been obtained, additional testing was conducted to determine whether certain pharmaceutical compounds would act to antagonize or agonize the interactions. Assays were conducted as for the G′ assay described supra both in the presence and absence of test compound, except that 50 ul of a 10 uM solution of the biotinylated PL peptide is allowed to react with the surface bearing the PDZ-domain polypeptide instead of a 20 uM solution as specified in step (2) of the assay.
(§6) In both tables, the first column (left to right) entitled “PDZ domain” lists the gene name of GST-PDZ domain fusion (see TABLE 9). Entries having two numbers separated by a slash indicate which PDZ domain was utilized. For example, in TABLE 10A, the entry for ZO-3 is 1/3. This means that PDZ domain 1 of 3 was used.
(§7) The second column labeled “PL” indicates the name of the PDZ ligand (see TABLES 10A and 10B) interacting with the PDZ domain. The third column entitled “Drug” lists the common or trade name of pharmaceutical compound tested and found to modulate the specific PDZ-PL interaction (suppliers and chemical information are listed in TABLE 11). The final column with the heading “Change in OD” indicates the change in absorbance at 450 nm of the assay in the absence (first number) or presence (second number) of chemical compound.
(§8) Many FDA approved drugs have unknown mechanism of function. It is quite possible that some of these drugs function by disrupting or increasing PDZ/PL interactions. This possibility was examined by using the ‘G Assay’ (Example 3 section D). FDA approved drugs were incubated in the presence of the labeled peptide and compared to the same interaction without drug to determine if there was an effect on specific PDZ:PL interactions (drugs added with peptide at step 9 in Example 3D). The primary focus of this experiment was on drugs involved in treatment of depression (amitriptyline, desipramine, trimipramine, benztropine, and nortryptilline) and epilepsy (valproic acid). No modes of action are known for these drugs.
(§9) Therapeutic dose was determined by guidelines given in the Physician's Desk Reference and in the assay, 200 times this amount was used. If a dosage range was given, the upper end of the range was used. Each interaction listed in TABLES 10A & B was tested in the ‘G Assay’ (see Example 3) against each of the drugs listed in TABLE 11. The concentration of GST-fusion protein and peptide used in the assay represent the Kd and were determined by titration. These values can be found in TABLE 7. The drugs were added to the peptide before addition to the well containing the PDZ protein. Otherwise, the assay was carried out as described and read at 450 nm after 30 minutes of developing. For the sequences of the PDZs and PLs used in these tests, see TABLES 8 & 9.
(§10) List of interactions and therapeutics for which a modulation of binding was observed. Concentrations at which the GST-PDZ fusion protein and labeled peptide were used can be found in Table 7 or Table 12.

ZO-2 (1/3) : DNAM (22L) = target: T10, ZO-2 (1/3) : DNAM (22L) (Homo sapiens, UniProt Q9UDY2); assay: G assay with FDA approved drug (Example 7, TABLE 10B)
T10 construct: made in house; host or cells: E. coli (DH5α, BL21 or JM109)
T10 sequence (Q9UDY2 27-122): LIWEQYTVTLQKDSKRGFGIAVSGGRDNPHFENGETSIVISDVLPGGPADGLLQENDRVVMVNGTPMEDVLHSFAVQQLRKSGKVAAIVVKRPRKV
Procedure: as §5, §6, §7, §8, §9, §10

T2 sequence (Q12923 whole entry, the tested form may be a part): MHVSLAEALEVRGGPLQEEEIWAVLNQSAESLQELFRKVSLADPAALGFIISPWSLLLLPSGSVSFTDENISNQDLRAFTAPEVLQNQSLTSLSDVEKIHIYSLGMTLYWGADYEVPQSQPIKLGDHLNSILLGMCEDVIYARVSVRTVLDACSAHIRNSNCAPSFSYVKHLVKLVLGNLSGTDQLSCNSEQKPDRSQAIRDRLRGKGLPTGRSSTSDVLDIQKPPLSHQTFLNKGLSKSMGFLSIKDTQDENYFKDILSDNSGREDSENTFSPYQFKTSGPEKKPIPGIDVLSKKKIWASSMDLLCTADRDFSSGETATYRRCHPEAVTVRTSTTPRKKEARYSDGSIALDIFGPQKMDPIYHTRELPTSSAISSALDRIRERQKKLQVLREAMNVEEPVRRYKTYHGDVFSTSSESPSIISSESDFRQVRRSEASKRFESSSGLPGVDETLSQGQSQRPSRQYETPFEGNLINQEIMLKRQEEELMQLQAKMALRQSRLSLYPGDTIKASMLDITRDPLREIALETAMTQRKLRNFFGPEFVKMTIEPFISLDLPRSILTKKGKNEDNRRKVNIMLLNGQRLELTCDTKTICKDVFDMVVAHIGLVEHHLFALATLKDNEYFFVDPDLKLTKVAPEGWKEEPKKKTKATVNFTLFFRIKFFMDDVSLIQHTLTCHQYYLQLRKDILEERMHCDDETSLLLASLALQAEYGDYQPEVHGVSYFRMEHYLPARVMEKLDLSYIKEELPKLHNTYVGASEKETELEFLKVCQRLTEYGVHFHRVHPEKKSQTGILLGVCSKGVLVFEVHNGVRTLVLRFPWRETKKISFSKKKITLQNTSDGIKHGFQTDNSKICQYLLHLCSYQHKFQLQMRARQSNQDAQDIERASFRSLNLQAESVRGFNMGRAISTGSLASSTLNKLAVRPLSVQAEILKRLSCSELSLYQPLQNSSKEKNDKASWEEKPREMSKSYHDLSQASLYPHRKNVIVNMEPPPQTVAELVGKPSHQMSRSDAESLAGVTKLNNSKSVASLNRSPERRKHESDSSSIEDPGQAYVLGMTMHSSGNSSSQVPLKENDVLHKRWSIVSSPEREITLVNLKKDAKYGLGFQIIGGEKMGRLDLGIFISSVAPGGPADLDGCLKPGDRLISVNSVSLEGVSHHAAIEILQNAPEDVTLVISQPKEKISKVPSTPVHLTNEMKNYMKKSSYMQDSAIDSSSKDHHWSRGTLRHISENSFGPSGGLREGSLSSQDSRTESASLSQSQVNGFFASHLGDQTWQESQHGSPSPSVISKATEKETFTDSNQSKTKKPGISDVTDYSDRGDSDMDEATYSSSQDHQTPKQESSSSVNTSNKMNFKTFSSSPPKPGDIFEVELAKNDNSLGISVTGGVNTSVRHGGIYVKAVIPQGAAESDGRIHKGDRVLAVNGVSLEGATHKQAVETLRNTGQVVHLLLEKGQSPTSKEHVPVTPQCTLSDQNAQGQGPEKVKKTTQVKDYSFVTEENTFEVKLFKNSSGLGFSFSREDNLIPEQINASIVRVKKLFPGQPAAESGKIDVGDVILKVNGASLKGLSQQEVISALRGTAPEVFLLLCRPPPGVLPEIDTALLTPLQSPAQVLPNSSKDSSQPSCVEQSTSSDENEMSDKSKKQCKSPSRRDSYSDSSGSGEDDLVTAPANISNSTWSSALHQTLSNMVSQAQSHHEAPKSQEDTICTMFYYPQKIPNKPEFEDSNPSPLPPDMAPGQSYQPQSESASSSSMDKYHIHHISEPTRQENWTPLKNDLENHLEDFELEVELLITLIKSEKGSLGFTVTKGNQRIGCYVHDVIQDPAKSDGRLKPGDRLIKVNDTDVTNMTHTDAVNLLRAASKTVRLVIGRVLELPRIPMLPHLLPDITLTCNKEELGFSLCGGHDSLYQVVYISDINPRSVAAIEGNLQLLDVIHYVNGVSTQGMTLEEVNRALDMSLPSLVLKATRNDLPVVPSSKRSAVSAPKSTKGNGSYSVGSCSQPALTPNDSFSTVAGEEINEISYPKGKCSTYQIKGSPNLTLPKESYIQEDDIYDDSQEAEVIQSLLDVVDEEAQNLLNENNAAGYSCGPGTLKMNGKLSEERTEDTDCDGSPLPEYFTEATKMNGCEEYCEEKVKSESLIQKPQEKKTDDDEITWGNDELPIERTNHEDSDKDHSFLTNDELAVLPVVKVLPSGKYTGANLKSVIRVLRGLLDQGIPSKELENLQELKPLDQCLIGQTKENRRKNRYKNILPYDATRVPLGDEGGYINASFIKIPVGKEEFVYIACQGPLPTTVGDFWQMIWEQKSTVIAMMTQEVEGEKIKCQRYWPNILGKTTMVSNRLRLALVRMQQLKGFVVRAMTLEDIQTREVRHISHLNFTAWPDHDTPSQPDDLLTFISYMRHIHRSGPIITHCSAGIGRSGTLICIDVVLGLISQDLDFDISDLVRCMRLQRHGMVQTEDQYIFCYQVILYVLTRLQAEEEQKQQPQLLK
T6 sequence (Q6P0Q8 whole entry, the tested form may be a part): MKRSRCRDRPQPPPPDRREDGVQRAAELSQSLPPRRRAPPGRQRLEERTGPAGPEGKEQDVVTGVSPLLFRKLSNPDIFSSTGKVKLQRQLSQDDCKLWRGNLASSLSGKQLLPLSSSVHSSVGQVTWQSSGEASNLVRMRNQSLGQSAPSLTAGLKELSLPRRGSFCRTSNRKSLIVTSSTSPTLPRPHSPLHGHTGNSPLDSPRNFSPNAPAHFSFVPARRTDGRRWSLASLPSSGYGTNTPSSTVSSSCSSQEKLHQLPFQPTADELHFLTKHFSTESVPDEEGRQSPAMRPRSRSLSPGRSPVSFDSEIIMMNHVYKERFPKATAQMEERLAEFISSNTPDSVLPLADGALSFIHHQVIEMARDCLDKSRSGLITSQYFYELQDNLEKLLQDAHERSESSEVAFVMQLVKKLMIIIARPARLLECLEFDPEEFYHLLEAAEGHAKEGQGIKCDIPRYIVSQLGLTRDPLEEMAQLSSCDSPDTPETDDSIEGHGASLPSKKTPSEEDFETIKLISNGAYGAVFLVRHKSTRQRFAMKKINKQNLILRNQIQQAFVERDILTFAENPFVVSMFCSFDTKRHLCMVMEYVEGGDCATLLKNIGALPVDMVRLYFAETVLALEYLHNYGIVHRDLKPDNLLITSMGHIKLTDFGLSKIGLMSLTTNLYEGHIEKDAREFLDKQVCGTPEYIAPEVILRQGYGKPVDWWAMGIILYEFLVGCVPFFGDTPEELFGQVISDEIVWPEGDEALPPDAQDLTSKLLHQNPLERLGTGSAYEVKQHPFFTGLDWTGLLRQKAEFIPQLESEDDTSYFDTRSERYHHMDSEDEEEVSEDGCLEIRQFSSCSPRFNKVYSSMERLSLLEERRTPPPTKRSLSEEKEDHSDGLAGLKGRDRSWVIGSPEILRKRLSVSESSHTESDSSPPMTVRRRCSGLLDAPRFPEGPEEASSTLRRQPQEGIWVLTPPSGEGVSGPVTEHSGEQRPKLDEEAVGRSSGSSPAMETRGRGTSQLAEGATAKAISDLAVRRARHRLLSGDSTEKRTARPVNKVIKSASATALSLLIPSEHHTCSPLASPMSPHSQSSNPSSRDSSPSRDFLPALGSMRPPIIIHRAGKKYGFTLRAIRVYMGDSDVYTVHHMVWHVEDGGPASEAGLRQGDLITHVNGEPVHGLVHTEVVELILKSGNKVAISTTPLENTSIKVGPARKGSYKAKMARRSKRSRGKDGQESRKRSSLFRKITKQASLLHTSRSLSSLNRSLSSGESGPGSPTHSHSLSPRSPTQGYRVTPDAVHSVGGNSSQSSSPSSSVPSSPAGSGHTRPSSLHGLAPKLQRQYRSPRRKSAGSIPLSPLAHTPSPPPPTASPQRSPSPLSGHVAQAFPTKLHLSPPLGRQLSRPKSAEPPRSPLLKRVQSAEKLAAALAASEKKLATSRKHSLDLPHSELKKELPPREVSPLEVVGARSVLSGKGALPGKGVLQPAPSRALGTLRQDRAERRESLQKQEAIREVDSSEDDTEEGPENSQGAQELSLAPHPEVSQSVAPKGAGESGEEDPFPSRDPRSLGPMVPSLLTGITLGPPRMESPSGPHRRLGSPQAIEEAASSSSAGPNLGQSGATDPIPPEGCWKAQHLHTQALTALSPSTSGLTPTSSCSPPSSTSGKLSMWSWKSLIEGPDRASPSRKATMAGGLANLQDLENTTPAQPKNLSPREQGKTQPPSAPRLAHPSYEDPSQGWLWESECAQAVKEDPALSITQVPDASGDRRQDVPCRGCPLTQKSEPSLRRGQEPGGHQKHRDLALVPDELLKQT
T4 sequence (Q12959 213-413 limits assumed): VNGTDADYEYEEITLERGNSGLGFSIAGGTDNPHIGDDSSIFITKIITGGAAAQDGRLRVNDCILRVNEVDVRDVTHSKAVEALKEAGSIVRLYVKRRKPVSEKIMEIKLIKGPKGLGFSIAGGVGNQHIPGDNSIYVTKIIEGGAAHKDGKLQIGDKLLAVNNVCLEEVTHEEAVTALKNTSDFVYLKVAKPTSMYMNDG
T3 sequence (P78352 58-398 limits assumed): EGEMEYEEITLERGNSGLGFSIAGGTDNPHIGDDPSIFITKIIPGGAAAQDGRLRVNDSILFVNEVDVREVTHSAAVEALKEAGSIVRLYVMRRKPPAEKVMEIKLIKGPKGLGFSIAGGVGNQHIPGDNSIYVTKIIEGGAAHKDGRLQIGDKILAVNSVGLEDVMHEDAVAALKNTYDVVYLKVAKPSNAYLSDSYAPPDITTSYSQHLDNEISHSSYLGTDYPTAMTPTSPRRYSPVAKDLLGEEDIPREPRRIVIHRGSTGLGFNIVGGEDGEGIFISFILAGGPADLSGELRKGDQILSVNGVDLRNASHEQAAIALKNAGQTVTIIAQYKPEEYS

**Q.** With “HPTDITGLPNLSDPSVSTVV (Biotin-HPTDITGLPNLSDPSVSTVV) [NMDA R2C]” as the compound, how does the Classification [1] read?
**A.** 1 (A450 nm 0-1)

**Q.** And the Classification [2]?
**A.** 1 (A450 nm 0-1)

**Q.** And the Classification [3]?
**A.** 1 (A450 nm 0-1)

**Q.** What about the Classification (DLG1 (PDZ Domain 1, 2)) of the same compound?
**A.** 1 (A450 nm 0-1)

**Q.** And the Classification (NeDLG (PDZ Domain 1, 2))?
**A.** 2 (A450 nm 1-2)

**Q.** What does the source list for “A2AB_HUMAN (modified) (Biotin-QDFRRAFRRILARPWTQTAW; not fully specified)”?
**A.** Classification [4]: 4 (A450 nm 3-4); Classification [5]: 5 (A450 nm of 4 more than 2× repeated); Classification [6]: 4 (A450 nm 3-4); Classification [7]: 5 (A450 nm of 4 more than 2× repeated); Classification ([8]; PDZ BAI-1, PDZ Domain 2): 4 (A450 nm 3-4); Classification ([8]; PDZ BAI-1, PDZ Domain 4): 5 (A450 nm of 4 more than 2× repeated)

**Q.** How did the “Change in OD: absorbance at 450 nm in presence of drug” value [9] turn out when CC(CN(C)C)CN1c2ccccc2CCc2ccccc21 (centres unmarked) [Trinipramine, TRIMIPRAMINE MALEATE] was run?
**A.** 1.1 to 2.2

**Q.** What does the source list for CNCCC=C1c2ccccc2CCc2ccccc21 [Nortryptilline, NORTRIPTYLINE HYDROCHLORIDE]?
**A.** CHANGE IN OD: absorbance at 450 nm in presence of drug (ZO-2 (1/3) : DNAM (22L); OD in absence of drug 2.1, drug concentration per TABLE 11, read after 30 minutes): 2.1 to 0.5; antagonistic effect, binding relative to absence of drug (ZO-2 (1/3) : DNAM (22L); ZO-2 domain 1 and DNAM-1): 4.2 fold
